# Biological target: BRCA1 (UniProt P38398)
# Assay: anti-HA co-IP from nuclear extract, blot
# Settings: reference: wild type FANCJ; sites S990
substance,measurement,value
FANCJ (from UniProt Q9BX63) S990A,binding against the reference,lost
